Results as given in IntAct's records for PubMed 20543817.

Columns and labels:
nlgnx_human NLGN4X [1] = target: nlgnx_human NLGN4X (UniProt Q8N0W4)
Nlgn1, Q62765-2 [2] = target: Nlgn1, Q62765-2
nlgnx_human NLGN4X [3] = target: nlgnx_human NLGN4X (UniProt Q8N0W4); remark: listed apart in the source
Nlgn1, Q62765-2 [4] = target: Nlgn1, Q62765-2; remark: listed apart in the source
nlgnx_human NLGN4X [5] = target: nlgnx_human NLGN4X (UniProt Q8N0W4); remark: listed apart in the source
Nlgn1, Q62765-2 [6] = target: Nlgn1, Q62765-2; remark: listed apart in the source
nlgnx_human NLGN4X [7] = target: nlgnx_human NLGN4X (UniProt Q8N0W4); remark: listed apart in the source
Nlgn1, Q62765-2 [8] = target: Nlgn1, Q62765-2; remark: listed apart in the source

Sequence of Nlgn1, Q62765-2 (Q62765 other isoform, or with tags, fused parts or gaps): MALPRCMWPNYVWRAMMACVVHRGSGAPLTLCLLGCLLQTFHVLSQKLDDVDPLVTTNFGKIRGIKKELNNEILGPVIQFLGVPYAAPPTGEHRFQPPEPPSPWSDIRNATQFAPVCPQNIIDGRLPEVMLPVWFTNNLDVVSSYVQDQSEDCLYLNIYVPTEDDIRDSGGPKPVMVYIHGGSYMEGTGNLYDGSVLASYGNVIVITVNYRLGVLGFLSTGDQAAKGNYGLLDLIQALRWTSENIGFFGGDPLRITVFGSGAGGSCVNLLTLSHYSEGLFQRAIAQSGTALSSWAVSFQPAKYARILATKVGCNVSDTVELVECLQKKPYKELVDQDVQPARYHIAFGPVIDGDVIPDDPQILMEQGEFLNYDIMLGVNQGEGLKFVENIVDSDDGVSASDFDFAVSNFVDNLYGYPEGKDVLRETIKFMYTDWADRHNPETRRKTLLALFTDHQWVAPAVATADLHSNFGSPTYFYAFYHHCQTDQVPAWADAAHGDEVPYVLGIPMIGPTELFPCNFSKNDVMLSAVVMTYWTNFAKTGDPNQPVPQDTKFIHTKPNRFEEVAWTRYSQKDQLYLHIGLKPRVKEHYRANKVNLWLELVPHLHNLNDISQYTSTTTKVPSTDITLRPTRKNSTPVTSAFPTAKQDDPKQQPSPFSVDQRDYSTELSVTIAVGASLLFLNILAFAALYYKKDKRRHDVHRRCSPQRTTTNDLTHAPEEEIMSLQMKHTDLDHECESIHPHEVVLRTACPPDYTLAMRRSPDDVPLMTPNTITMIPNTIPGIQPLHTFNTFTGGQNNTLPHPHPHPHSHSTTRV
Sequence of Neurexin-1-beta (Rattus norvegicus (Rat)), Q63373-3 I206A (Q63373 other isoform, or with tags, fused parts or gaps I206A): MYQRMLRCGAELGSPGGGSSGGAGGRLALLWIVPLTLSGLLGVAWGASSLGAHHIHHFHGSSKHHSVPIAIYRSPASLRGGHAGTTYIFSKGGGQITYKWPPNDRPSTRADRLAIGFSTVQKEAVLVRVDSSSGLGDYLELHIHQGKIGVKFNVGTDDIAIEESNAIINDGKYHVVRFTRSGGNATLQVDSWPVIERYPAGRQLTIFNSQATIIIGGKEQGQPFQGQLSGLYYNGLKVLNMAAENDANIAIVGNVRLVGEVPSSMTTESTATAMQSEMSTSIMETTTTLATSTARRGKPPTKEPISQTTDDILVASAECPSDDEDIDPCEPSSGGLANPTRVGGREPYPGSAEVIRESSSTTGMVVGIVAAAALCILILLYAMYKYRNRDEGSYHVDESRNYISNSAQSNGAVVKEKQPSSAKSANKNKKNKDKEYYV
Sequence of Neurexin-1-beta (Rattus norvegicus (Rat)), Q63373-3 R202A (Q63373 other isoform, or with tags, fused parts or gaps R202A): as the sequence (Q63373 other isoform, or with tags, fused parts or gaps I206A) above
Sequence of Neurexin-1-beta (Rattus norvegicus (Rat)), Q63373-3 R109A (Q63373 other isoform, or with tags, fused parts or gaps R109A): as the sequence (Q63373 other isoform, or with tags, fused parts or gaps I206A) above
Sequence of Neurexin-1-beta (Rattus norvegicus (Rat)), Q63373-3 N103A (Q63373 other isoform, or with tags, fused parts or gaps N103A): as the sequence (Q63373 other isoform, or with tags, fused parts or gaps I206A) above

Neurexin-1-beta (Rattus norvegicus (Rat)), Q63373-3 R109A
effect of a mutation on the interaction (nlgnx_human NLGN4X [1]): disrupting interaction | effect of a mutation on the interaction (Nlgn1, Q62765-2 [2]): decreasing interaction

Neurexin-1-beta (Rattus norvegicus (Rat)), Q63373-3 R202A
effect of a mutation on the interaction (nlgnx_human NLGN4X [3]): disrupting interaction | effect of a mutation on the interaction (Nlgn1, Q62765-2 [4]): decreasing interaction

Neurexin-1-beta (Rattus norvegicus (Rat)), Q63373-3 N103A
effect of a mutation on the interaction (nlgnx_human NLGN4X [5]): decreasing interaction | effect of a mutation on the interaction (Nlgn1, Q62765-2 [6]): decreasing interaction

Neurexin-1-beta (Rattus norvegicus (Rat)), Q63373-3 I206A
effect of a mutation on the interaction (nlgnx_human NLGN4X [7]): disrupting interaction | effect of a mutation on the interaction (Nlgn1, Q62765-2 [8]): disrupting interaction
